According to US20190367627A1 (AGENUS, published 2019):

T1: human OX40 (human, UniProt P43489 29-277)
T1 construct: Recombinantly expressed on transduced Jurkat cells; also called OX40 receptor; huOX40
T1 sequence: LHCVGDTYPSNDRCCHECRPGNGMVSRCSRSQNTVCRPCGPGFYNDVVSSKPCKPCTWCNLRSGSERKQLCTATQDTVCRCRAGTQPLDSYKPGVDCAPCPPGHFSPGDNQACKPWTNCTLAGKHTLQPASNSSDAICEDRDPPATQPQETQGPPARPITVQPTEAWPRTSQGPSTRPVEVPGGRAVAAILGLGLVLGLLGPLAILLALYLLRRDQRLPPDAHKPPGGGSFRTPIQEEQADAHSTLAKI


molecular target: T1, human OX40; assay: flow cytometry on Jurkat cells expressing human OX40
From the text: FIGS. 1A, 1B, 1C, 1D, 1E, IF, 1G, 1H, 1I, and 1J are a set of flow cytometry plots showing the binding of anti-OX40 antibodies or an isotype control antibody to Jurkat cells expressing human OX40. The anti-OX40 antibodies tested include pab1949, pab2049, heavy chain variants of pab1949 (pab1949 N56Y, pab1949 Y103A, pab1949 D104A, pab1949 Y108A, and pab1949 D109A), and light chain variants of pab1949 (pab1949 A96G/L97S, pab1949 Q98K, and pab1949 T99W). All the anti-OX40 antibodies tested are IgG₁ antibodies. MFI values are plotted over a range of antibody concentrations.
The binding characteristics of the anti-OX40 antibodies to cells expressing human OX40 were analyzed by flow cytometry. Briefly, Jurkat cells were transduced to recombinantly express human OX40. Stable clones were generated via single-cell sorting (FACS ARIA Fusion). OX40 expression was verified by flow cytometry using positive control antibodies. For binding analysis, OX40-expressing Jurkat cells were incubated with anti-OX40 antibodies (12-point dose titration, 10 μg/ml to 0.00005 μg/ml) for 30 minutes at 4° C. The samples were washed twice and then incubated with FITC-conjugated mouse anti-human kappa detection antibody (Life Technologies, Catalog number: HP6062) for 30 minutes at 4° C. The samples were then washed twice and analyzed using the LSRFortessa flow cytometer (BD Biosciences). The flow cytometry plots were analyzed using a combination of FACS DIVA and WEHI Weasel software.

Row | binding result | Binder
1 | binds | pab1949 Y103A (antibody, IgG1, V domains shown) VH: EVQLVESGGGLVQPGGSLKLSCAASGFTFSGSAMHWVRQASGKGLEWVGRIRSKANSYATAYAASVKGRFTISRDDSKNTAYLQMNSLKTEDTAVYYCTSGIADSSGYDYWGQGTLVTVSS VL: not shown
2 | binds | pab1949 Q98K (antibody, V domains shown, Only variable domains are tied to this antibody) VH: EVQLVESGGGLVQPGGSLKLSCAASGFTFSGSAMHWVRQASGKGLEWVGRIRSKANSYATAYAASVKGRFTISRDDSKNTAYLQMNSLKTEDTAVYYCTSGIYDSSGYDYWGQGTLVTVSS VL: not shown
3 | binds | pab1949 Y108A (antibody, IgG1, V domains shown) VH: EVQLVESGGGLVQPGGSLKLSCAASGFTFSGSAMHWVRQASGKGLEWVGRIRSKANSYATAYAASVKGRFTISRDDSKNTAYLQMNSLKTEDTAVYYCTSGIYDSSGADYWGQGTLVTVSS VL: not shown
4 | binds | pab1949 D104A (antibody, IgG1, V domains shown) VH: EVQLVESGGGLVQPGGSLKLSCAASGFTFSGSAMHWVRQASGKGLEWVGRIRSKANSYATAYAASVKGRFTISRDDSKNTAYLQMNSLKTEDTAVYYCTSGIYASSGYDYWGQGTLVTVSS VL: not shown

Second part, the binder before the results:

Row | Binder | binding result
5 | pab1949 (antibody, human IgG1, kappa, V domains shown, also called pab1949 (IgG1)) VH: EVQLVESGGGLVQPGGSLKLSCAASGFTFSGSAMHWVRQASGKGLEWVGRIRSKANSYATAYAASVKGRFTISRDDSKNTAYLQMNSLKTEDTAVYYCTSGIYDSSGYDYWGQGTLVTVSS VL: not shown | binds
6 | pab1949 N56Y (antibody, IgG1, V domains shown) VH: EVQLVESGGGLVQPGGSLKLSCAASGFTFSGSAMHWVRQASGKGLEWVGRIRSKAYSYATAYAASVKGRFTISRDDSKNTAYLQMNSLKTEDTAVYYCTSGIYDSSGYDYWGQGTLVTVSS VL: not shown | binds
7 | pab2049 (antibody, human IgG1, V domains shown, its constant region is not tied to this antibody; also called pab2049 (IgG1)) VH: EVQLVESGGGLVQPGGSLKLSCAASGFTFSGSAMHWVRQASGKGLEWVGRIRSKANSYATAYAASVKGRFTISRDDSKNTAYLQMNSLKTEDTAVYYCTSGIYDSSGYDYWGQGTLVTVSS VL: not shown | binds
8 | pab1949 D109A (antibody, IgG1, V domains shown) VH: EVQLVESGGGLVQPGGSLKLSCAASGFTFSGSAMHWVRQASGKGLEWVGRIRSKANSYATAYAASVKGRFTISRDDSKNTAYLQMNSLKTEDTAVYYCTSGIYDSSGYAYWGQGTLVTVSS VL: not shown | binds
9 | pab1949 T99W (antibody, V domains shown, Only variable domains are tied to this antibody) VH: EVQLVESGGGLVQPGGSLKLSCAASGFTFSGSAMHWVRQASGKGLEWVGRIRSKANSYATAYAASVKGRFTISRDDSKNTAYLQMNSLKTEDTAVYYCTSGIYDSSGYDYWGQGTLVTVSS VL: not shown | binds
10 | pab1949 A96G/L97S (antibody, IgG1, V domains shown, Only variable domains are tied to this antibody) VH: EVQLVESGGGLVQPGGSLKLSCAASGFTFSGSAMHWVRQASGKGLEWVGRIRSKANSYATAYAASVKGRFTISRDDSKNTAYLQMNSLKTEDTAVYYCTSGIYDSSGYDYWGQGTLVTVSS VL: not shown | binds
